The values that follow come from the supplement of paper PMC10201428.

In data set [1] the test system is VchCAST RNA-guided transposition machinery (E. coli BL21(DE3) host, lacZ target). Briefly: relative integration efficiency (T-LR orientation) vs wild-type transposon end (log2 (normalized fold change)); transposon end mutated: right end (5 bp flank + 75 bp right end); higher = more efficient transposition. The essentials: (§1)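 Pools of 1549 left-end or 1849 right-end barcoded transposon variants were cloned into a pUC57 mini-transposon donor and co-transformed into E. coli BL21(DE3) with a T7-driven effector plasmid carrying a CRISPR array, tniQ-cas8-cas7-cas6 and tnsA-tnsB-tnsC. Plating used 0.1 mM IPTG at 37°C for 18 h, and input plasmids and genomic integration junctions were PCR-amplified for Illumina sequencing, with two biological output replicates and four reference barcodes. Relative integration efficiency is the log-transformed fold change of output over input barcode abundance, normalised to the reference barcodes.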

The test system is the same in data set [2]. The data set can be described thus: relative integration efficiency (T-RL orientation) vs wild-type transposon end (log2 (normalized fold change)); transposon end mutated: right end (5 bp flank + 75 bp right end); higher = more efficient transposition. In outline:
as §1

± gives the standard deviation of the averaged measurements.

With “ACATTTGTTGATACAACCATAAAATGATAATTACACCCATAAATTGATAATTATCACACCCATAAATTGATATTGCCTCTGATCATACAACCATAAAATGATAATTAGTCAGACCAAGCACCGACAC”, the “relative integration efficiency (log2)” value in data set [1] is -0.751 ± 0.19; in data set [2], 0.403 ± 0.3.

As for “ACATTTGTTGATACAACCATAAAATGATAATTACACCCATAAATTGATAATTATCACACCCATAAATTGATATTGCCTCTGATCATAGCAACCATAAAATGATAATTATCAGACCAAGCACCGACAC”, the “relative integration efficiency (log2)” value was -0.337 ± 0.55 in data set [1] and -0.108 ± 0.26 in data set [2].

Turning to “ACATTTGTTGATACAACCATAAAATGATAATTACACCCATAAATTGATAATTATCACACCCATAAATTGATATTGCCTCTGATCATAGCGTACTAGTTAACTAGTTCGAGTCAGACCGCACCGACAC”, the “relative integration efficiency (log2)” value in data set [1] is -0.453 ± 0.046; in data set [2], -0.142 ± 0.091.

On to “ACATTTGTTGATACAACCATAAAATGATAATTACACCCATAAATTGATAATTATCACACCCATAAATTGATATTGCCTCTGATCATAGTCAAACTGTATTTATATACAGTTGGACCAGCACCGACAC”, for which the “relative integration efficiency (log2)” value is 0.414 ± 0.18 in data set [1] and 0.00825 ± 0.2 in data set [2].

As for “ACATTTGTTGATACAACCATAAAATGATAATTACACCCATAAATTGATAATTATCACACCCATAAATTGATATTGCCTCTGATCATAGTCAACCATAAAATGATAATTACAGACCAAGCACCGACAC”, the “relative integration efficiency (log2)” value in data set [1] was -0.792 ± 0.34; in data set [2], -0.223 ± 0.2.

On to “ACATTTGTTGATACAACCATAAAATGATAATTACACCCATAAATTGATAATTATCACACCCATAAATTGATATTGCCTCTGATCATAGTCAACTGTATATAAATACAGTTCAGACCAGCACCGACAC”, for which the “relative integration efficiency (log2)” value in data set [1] was 0.274 ± 0.022; in data set [2], -0.116 ± 0.21.

As for “ACATTTGTTGATACAACCATAAAATGATAATTACACCCATAAATTGATAATTATCACACCCATAAATTGATATTGCCTCTGATCATAGTCAATGTGATAACAATCACAGAAGACCAAGCACCGACAC”, the “relative integration efficiency (log2)” value in data set [1] is -0.0829 ± 0.35; in data set [2] it was 0.245 ± 0.16.

On to “ACATTTGTTGATACAACCATAAAATGATAATTACACCCATAAATTGATAATTATCACACCCATAAATTGATATTGCCTCTGATCATAGTCACAACCATAAAATGATAATTAGACCAAGCACCGACAC”, for which the “relative integration efficiency (log2)” value in data set [1] is -0.387 ± 0.086; in data set [2], -0.196 ± 0.19.

Turning to “ACATTTGTTGATACAACCATAAAATGATAATTACACCCATAAATTGATAATTATCACACCCATAAATTGATATTGCCTCTGATCATAGTCAGACAACCATAAAATGATAATTACCAAGCACCGACAC”, the figures for the “relative integration efficiency (log2)” value in data set [1] and in data set [2] were -0.436 ± 0.47 and -0.231 ± 0.065, respectively.

Regarding “ACATTTGTTGATACAACCATAAAATGATAATTACACCCATAAATTGATAATTATCACACCCATAAATTGATATTGCCTCTGATCATAGTCAGACCAACAACCATAAAATGATAATTAGCACCGACAC”, the figures for the “relative integration efficiency (log2)” value in data set [1] and in data set [2] were -0.0679 ± 0.32 and 0.0312 ± 0.094, respectively.

For “ACATTTGTTGATACAACCATAAAATGATAATTACACCCATAAATTGATAATTATCACACCCATAAATTGATATTGCCTCTGATCATAGTCAGACCAACATTTGTGAGCGGATAACAAGCACCGACAC”, the “relative integration efficiency (log2)” value in data set [1] was -0.684 ± 0.077; in data set [2] it was -0.379 ± 0.087.

In the case of “ACATTTGTTGATACAACCATAAAATGATAATTACACCCATAAATTGATAATTATCACACCCATAAATTGATATTGCCTCTGATCATAGTCAGACCAACCATAAAATGATAATTACAAGCACCGACAC”, the results for the “relative integration efficiency (log2)” value in data set [1] and in data set [2] were -0.0296 ± 0.24 and -0.253 ± 0.23, respectively.

Take “ACATTTGTTGATACAACCATAAAATGATAATTACACCCATAAATTGATAATTATCACACCCATAAATTGATATTGCCTCTGATCATAGTCAGACCACAACCATAAAATGATAATTAAGCACCGACAC”: the figures for the “relative integration efficiency (log2)” value in data set [1] and in data set [2] were -0.205 ± 0.37 and -0.0173 ± 0.24, respectively.

Turning to “ACATTTGTTGATACAACCATAAAATGATAATTACACCCATAAATTGATAATTATCACACCCATAAATTGATATTGCCTCTGATCATAGTCAGACCCAACCATAAAATGATAATTAAAGCACCGACAC”, the results for the “relative integration efficiency (log2)” value in data set [1] and in data set [2] were 0.192 ± 0.26 and 0.0847 ± 0.29, respectively.

On to “ACATTTGTTGATACAACCATAAAATGATAATTACACCCATAAATTGATAATTATCACACCCATAAATTGATATTGCCTCTGATCATAGTCAGATGAATTTTTATGCAAAGACCAACAGCACCGACAC”, for which the “relative integration efficiency (log2)” value in data set [1] is 0.652 ± 0.2; in data set [2], 0.552 ± 0.3.

Regarding “ACATTTGTTGATACAACCATAAAATGATAATTACACCCATAAATTGATAATTATCACACCCATAAATTGATATTGCCTCTGATCATAGTCAGCAACCATAAAATGATAATTAACCAAGCACCGACAC”, the results for the “relative integration efficiency (log2)” value in data set [1] and in data set [2] were -0.485 ± 0.41 and -0.283 ± 0.15, respectively.
